# How the values were obtained:
# [1] = Isoelectric point determination (IEF gel); format: physicochemical
# Method: In this Example, experiments performed to determine the isoelectric point and cloud point of SELP47K (Example 1) are described. The isoelectric point of SELP47K was determined by electrophoresing 5 mg/ml SELP47K solution using Isoelectric Focusing Electrophoresis (IEF) gel and Novex electrophoresis apparatus along with protein standards markers.
# [2] = Cloud point determination (turbidity at 300 nm, 20-80° C.); format: physicochemical
# Method: The cloud point of SELP47K was determined by first preparing 0.1% and 1% solutions of polydispersed SELP 47K (Example 2) in three different buffers: 50 mM acetate pH 5; 50 mM Tris pH 7; 50 mM Tris pH 9. A 0.5 M NaCl salt solution was prepared in water and salt containing solutions were prepared using this stock solution. Samples were placed in quartz cuvettes and the cloud point determination was carried out using a Cary 300 spectrophotometer equipped with a thermal program and multiple cuvettes configuration. Turbidity measurements were made at 300 nm and the temperature was varied from 20-80° C.
# [3] = Water solubility of SELP47K films; format: physicochemical
# Excerpt: The coating appeared to be comprised of densely packed intertwining strands. […] Short, single/double strands of material were found in areas where the coating appeared to be less concentrated. Individual strands of material could be seen in the less concentrated, gray areas on the wafer. SEM analysis of the films provide the basis of water-solubility of SELP47K films.
# facial skin [4] = assay: Skin efficacy study: image analysis of Silflo replicas (fine line factors); format: in vivo, human
# Excerpt: Eleven impaneled subjects (age 35-70 years) showing clear signs of facial skin aging were provided with a non-moisturizing soap, ([…]®), one week prior to the study and were instructed to use the provided soap to wash the face and were required to refrain from excessive UV exposure. After a seven-day conditioning phase, subjects were acclimated to the ambient temperature and humidity for thirty minutes. One side of the face of each subject was designated as the measurement side by random selection by computer. After 30-minute acclimation period, baseline digital photographs were taken, and instrumental measurements, skin replica samples and visual evaluations were made. Photographs were taken, with a Canfield Scientific Camera, of the full face, the periorbital area, and the temporal side of eye. Chromameter (Model CR300, Minolta) measurements were taken from the periorbital area directly under the eye (Chardon et al., Int. J. Cosmet. Sci., 13:191-208 [1991]). Silflo replicas (CuDerm Corporation, Dallas, Tx) were made from the periorbital area adjacent to the temporal side of the eye (Grove et al., J. Am. Acad. Dermatol., 21:631-637 [1998]; and Sun et al […] Conference, Mexico). […] Specifically, the fine line factors, which approximate the number and/or length of facial lines in the 10 evaluated bands of skin replica, were measured. […]
# facial skin [5] = assay: Skin efficacy study: superficial facial line score (Packman and Gans); format: in vivo, human
# Excerpt: Eleven impaneled subjects (age 35-70 years) showing clear signs of facial skin aging were provided with a non-moisturizing soap, (AVEENO®), one week prior to the study and were instructed to use the provided soap to wash the face and were required to refrain from excessive UV exposure. After a seven-day conditioning phase, subjects were acclimated to the ambient temperature and humidity for thirty minutes. One side of the face of each subject was designated as the measurement side by random selection by computer. After 30-minute acclimation period, baseline digital photographs were taken, and instrumental measurements, skin replica samples and visual evaluations were made. Photographs were taken, with a Canfield Scientific Camera, of the full face, the periorbital area, and the temporal side of eye. Chromameter (Model CR300, Minolta) measurements were taken from the periorbital area directly under the eye (Chardon et al., Int. J. Cosmet. Sci., 13:191-208 [1991]). […]
# Evaluation of superficial facial lines was performed by an expert evaluator using the scoring method described by Packman and Gans (supra). A 7% decrease in the superficial facial line score was assessed at the 30-minute post-treatment interval compared to baseline, which was statistically significant at the 91% confidence level (p=0.09).
# facial skin [6] = assay: Skin efficacy study: Chromameter a* (skin redness); format: in vivo, human
# Excerpt: (§1) Eleven impaneled subjects (age 35-70 years) showing clear signs of facial skin aging were provided with a non-moisturizing soap, (AVEENO®), one week prior to the study and were instructed to use the provided soap to wash the face and were required to refrain from excessive UV exposure. After a seven-day conditioning phase, subjects were acclimated to the ambient temperature and humidity for thirty minutes. One side of the face of each subject was designated as the measurement side by random selection by computer. After 30-minute acclimation period, baseline digital photographs were taken, and instrumental measurements, skin replica samples and visual evaluations were made. Photographs were taken, with a Canfield Scientific Camera, of the full face, the periorbital area, and the temporal side of eye. Chromameter (Model CR300, Minolta) measurements were taken from the periorbital area directly under the eye (Chardon et al., Int. J. Cosmet. Sci., 13:191-208 [1991]). Silflo replicas (CuDerm Corporation, Dallas, Tx) were made from the periorbital area adjacent to the temporal side of the eye (Grove et al., J. Am. Acad. Dermatol., 21:631-637 [1998]; and Sun et al 1997 IFSCC Conference, Mexico). […]
# Chromometer values for L*, a*, and b* were read and total color value, E, was calculated for each subject. […]
# facial skin [7] = assay: Skin efficacy study: Cutometer Uv (viscoelasticity); format: in vivo, human; conditions: 5% aqueous solution applied once to face; 30 Minutes Post; baseline mean 0.09
# Excerpt: as §1, with “Mexico). Cutometer (SEM575, Courage and Khazaka, Germany) measurements were taken at the periorbital area at the upper portion of cheekbone. All measurements were performed in triplicate.” for “Mexico).”
# [8] = Cloud point determination (turbidity at 300 nm, 20-80° C.); format: physicochemical; conditions: 0.05% solution in water
substance,measurement,setting,value
"SELP47K: silk-elastin repeat sequence protein copolymer, head-[(GAGAGS)2(GVGVP)3GKGVP(GVGP)4(GAGAGS)2]13-tail (SEQ ID NO:19), 886 amino acids",Isoelectric Point,"[1]; 5 mg/ml solution, IEF gel",10.4
same,pI of the protein,[1]; stated in production example,10.5
same,cloud point,"[2]; 0.1% solution, 0.5 M NaCl, irrespective of pH",50 °C
same,cloud point,"[2]; 0.1% solution, pH 5",remained soluble even at 80 °C
same,cloud point,"[2]; 0.1% solution, pH 9",60 °C
same,cloud point,[2]; 1% solution in water,70 °C
same,cloud point,"[2]; 1% solution, 0.5 M salt, irrespective of pH",55 °C
same,cloud point,"[2]; 1% solution, 5-9 pH range",~65 °C
same,cloud point,"[2]; 1% solution, pH 5 buffer, 0.2 M salt",65 °C
same,cloud point,"[2]; 1% solution, pH 5 buffer, 0.5 M salt",below 60 °C
same,cloud point,"[2]; 1% solution, pH 5 buffer, no salt",75 °C
same,water solubility of film,[3]; film made out of 10% SELP47K solution,water-soluble
same,water solubility of film,[3]; film made out of 20% SELP47K solution,water insoluble
same,"Fine Line Factors, Mean","facial skin [4]; 5% aqueous solution applied once to face, 30 Minutes Post, baseline mean 284",246
same,decrease in fine line factors,"facial skin [4]; 5% aqueous solution, 30 minutes after application vs baseline, p=0.05",13%
same,"Superficial Facial Line Score, Mean","facial skin [5]; 5% aqueous solution applied once to face, 30 Minutes Post, baseline mean 40",37
same,decrease in the superficial facial line score,"facial skin [5]; 5% aqueous solution, 30-minute post-treatment vs baseline, p=0.09",7%
same,"Chromameter a* Score, Mean","facial skin [6]; 5% aqueous solution applied once to face, 30 Minutes Post, baseline mean 11.05",10.39
same,decrease in average a* value (redness of the skin),"facial skin [6]; 5% aqueous solution, 30 minutes post vs baseline, p=0.024",6%
same,"Cutometer Uv Score, Mean",facial skin [7],0.106
same,cloud point,[8],remains soluble in water even at 80 °C
